# Laboratory results reported in article PMC5581300.
# Read-outs that look alike come from different tables or passages of the source.
# How the values were obtained:
# [1] = biological target: Plasma Membrane Calcium ATPase 4 (mouse (endogenous in sperm)) (UniProt Q6Q477); assay: FRET or BRET
# [2] = biological target: Plasma Membrane Calcium ATPase 4 (mouse (endogenous in sperm)) (UniProt Q6Q477); assay: FRET or BRET; remark: listed apart in the source
# Chain of UniProt Q6Q477 (Q6Q477 whole entry): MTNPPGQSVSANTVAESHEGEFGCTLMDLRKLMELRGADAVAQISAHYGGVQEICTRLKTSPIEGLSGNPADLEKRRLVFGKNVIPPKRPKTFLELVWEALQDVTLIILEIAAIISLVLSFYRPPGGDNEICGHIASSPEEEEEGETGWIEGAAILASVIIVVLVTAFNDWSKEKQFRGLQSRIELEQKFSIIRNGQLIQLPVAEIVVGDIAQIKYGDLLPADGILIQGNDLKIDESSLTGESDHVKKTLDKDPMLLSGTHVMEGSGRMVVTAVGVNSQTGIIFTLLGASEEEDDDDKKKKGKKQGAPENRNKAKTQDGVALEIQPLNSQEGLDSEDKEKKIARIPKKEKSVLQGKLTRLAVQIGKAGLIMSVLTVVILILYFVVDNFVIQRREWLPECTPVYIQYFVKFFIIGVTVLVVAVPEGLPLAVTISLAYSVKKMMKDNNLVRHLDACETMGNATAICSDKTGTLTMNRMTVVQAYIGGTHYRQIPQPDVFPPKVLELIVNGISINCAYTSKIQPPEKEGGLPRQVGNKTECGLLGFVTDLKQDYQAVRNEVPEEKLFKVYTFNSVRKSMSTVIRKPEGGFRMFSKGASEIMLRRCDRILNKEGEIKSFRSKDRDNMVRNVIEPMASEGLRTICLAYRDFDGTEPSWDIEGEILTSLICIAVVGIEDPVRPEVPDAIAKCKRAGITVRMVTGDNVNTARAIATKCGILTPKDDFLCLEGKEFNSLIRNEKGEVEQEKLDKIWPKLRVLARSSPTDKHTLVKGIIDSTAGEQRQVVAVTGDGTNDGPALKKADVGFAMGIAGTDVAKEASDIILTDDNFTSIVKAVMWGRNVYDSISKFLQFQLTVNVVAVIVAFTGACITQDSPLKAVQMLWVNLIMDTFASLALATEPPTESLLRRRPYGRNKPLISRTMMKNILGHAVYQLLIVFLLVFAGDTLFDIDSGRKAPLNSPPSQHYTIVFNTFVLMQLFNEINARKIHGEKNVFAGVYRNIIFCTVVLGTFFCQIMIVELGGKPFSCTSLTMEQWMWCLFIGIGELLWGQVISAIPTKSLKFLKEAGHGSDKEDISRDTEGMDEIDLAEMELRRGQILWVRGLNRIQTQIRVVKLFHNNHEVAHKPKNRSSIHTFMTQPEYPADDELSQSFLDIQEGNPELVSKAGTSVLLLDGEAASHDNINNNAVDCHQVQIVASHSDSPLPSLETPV
substance,measurement,setting,value
neuronal nitric oxide synthase (from UniProt Q9Z0J4 1-1429) (enzyme),FRET efficiency,[1],24%
same,FRET efficiency,[2],6%
